Experimental data reported in publication PMC12677461.

Molecular target: Gαo, alpha subunit of the heterotrimeric G protein Go (native, mouse brain) (mouse (endogenous in BALB/c mouse brain)) (UniProt P18872)
Assay: co-IP; mouse brain lysate (2 mg/ml in IP buffer: 50 mM HEPES pH 7.4, 100 mM NaCl, 1 mM EDTA, 3 mM EGTA, 10 mM MgCl2, 1% Triton X-100) with 100 µM GDP, 4 °C, 2 h; Gαo precipitated with anti-Gαo sc-13532 cross-linked to protein A/G agarose; read by protein stain and western blot

UniProt P18872, sequence (P18872 whole entry, one chain of several): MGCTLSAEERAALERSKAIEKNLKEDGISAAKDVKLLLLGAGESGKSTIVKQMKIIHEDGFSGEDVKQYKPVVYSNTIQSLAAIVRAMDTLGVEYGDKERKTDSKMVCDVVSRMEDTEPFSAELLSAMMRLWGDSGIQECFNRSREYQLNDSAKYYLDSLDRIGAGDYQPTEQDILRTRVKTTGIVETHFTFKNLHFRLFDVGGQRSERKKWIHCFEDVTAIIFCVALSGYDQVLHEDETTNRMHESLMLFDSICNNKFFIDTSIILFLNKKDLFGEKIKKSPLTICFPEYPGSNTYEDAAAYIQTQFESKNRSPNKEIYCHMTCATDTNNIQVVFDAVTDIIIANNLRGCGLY

stoichiometry N: 1
Substance: Gβγ (G protein β and γ subunits, native, mouse brain) (from UniProt P62874 1-340; P63213 1-71) (complex)
